IntAct's records for PubMed 19536131

B1: E3 ubiquitin-protein ligase makorin-1 (Homo sapiens), Q9UHC7 (parent)
chain: MAEAATPGTTATTSGAGAAAATAAAASPTPIPTVTAPSLGAGGGGGGSDGSGGGWTKQVTCRYFMHGVCKEGDNCRYSHDLSDSPYSVVCKYFQRGYCIYGDRCRYEHSKPLKQEEATATELTTKSSLAASSSLSSIVGPLVEMNTGEAESRNSNFATVGAGSEDWVNAIEFVPGQPYCGRTAPSCTEAPLQGSVTKEESEKEQTAVETKKQLCPYAAVGECRYGENCVYLHGDSCDMCGLQVLHPMDAAQRSQHIKSCIEAHEKDMELSFAVQRSKDMVCGICMEVVYEKANPSERRFGILSNCNHTYCLKCIRKWRSAKQFESKIIKSCPECRITSNFVIPSEYWVEEKEEKQKLILKYKEAMSNKACRYFDEGRGSCPFGGNCFYKHAYPDGRREEPQRQKVGTSSRYRAQRRNHFWELIEERENSNPFDNDEEEVVTFELGEMLLMLLAAGGDDELTDSEDEWDLFHDELEDFYDLDL

Variants of: B1
Settings: with ubc_human UBC

effect of a mutation on the interaction	Variant
disrupting interaction	MAEAATPGTTATTSGAGAAAATAAAASPTPIPTVTAPSLGAGGGGGGSDGSGGGWTKQVTCRYFMHGVCKEGDNCRYSHDLSDSPYSVVCKYFQRGYCIYGDRCRYEHSKPLKQEEATATELTTKSSLAASSSLSSIVGPLVEMNTGEAESRNSNFATVGAGSEDWVNAIEFVPGQPYCGRTAPSCTEAPLQGSVTKEESEKEQTAVETKKQLCPYAAVGECRYGENCVYLHGDSCDMCGLQVLHPMDAAQRSQHIKSCIEAHEKDMELSFAVQRSKDMVCGICMEVVYEKANPSERRFGILSNCNETYCLKCIRKWRSAKQFESKIIKSCPECRITSNFVIPSEYWVEEKEEKQKLILKYKEAMSNKACRYFDEGRGSCPFGGNCFYKHAYPDGRREEPQRQKVGTSSRYRAQRRNHFWELIEERENSNPFDNDEEEVVTFELGEMLLMLLAAGGDDELTDSEDEWDLFHDELEDFYDLDL [H307E]
